# Test results from doi:10.1101/2020.07.12.199869.
# Target: low-density lipoprotein receptor-related protein 1 (mouse (endogenous in bEnd3))
# Test: proximity ligation
# Sequence of low-density lipoprotein receptor-related protein 1 (mouse (endogenous in bEnd3)) (Q91ZX7 20-4545): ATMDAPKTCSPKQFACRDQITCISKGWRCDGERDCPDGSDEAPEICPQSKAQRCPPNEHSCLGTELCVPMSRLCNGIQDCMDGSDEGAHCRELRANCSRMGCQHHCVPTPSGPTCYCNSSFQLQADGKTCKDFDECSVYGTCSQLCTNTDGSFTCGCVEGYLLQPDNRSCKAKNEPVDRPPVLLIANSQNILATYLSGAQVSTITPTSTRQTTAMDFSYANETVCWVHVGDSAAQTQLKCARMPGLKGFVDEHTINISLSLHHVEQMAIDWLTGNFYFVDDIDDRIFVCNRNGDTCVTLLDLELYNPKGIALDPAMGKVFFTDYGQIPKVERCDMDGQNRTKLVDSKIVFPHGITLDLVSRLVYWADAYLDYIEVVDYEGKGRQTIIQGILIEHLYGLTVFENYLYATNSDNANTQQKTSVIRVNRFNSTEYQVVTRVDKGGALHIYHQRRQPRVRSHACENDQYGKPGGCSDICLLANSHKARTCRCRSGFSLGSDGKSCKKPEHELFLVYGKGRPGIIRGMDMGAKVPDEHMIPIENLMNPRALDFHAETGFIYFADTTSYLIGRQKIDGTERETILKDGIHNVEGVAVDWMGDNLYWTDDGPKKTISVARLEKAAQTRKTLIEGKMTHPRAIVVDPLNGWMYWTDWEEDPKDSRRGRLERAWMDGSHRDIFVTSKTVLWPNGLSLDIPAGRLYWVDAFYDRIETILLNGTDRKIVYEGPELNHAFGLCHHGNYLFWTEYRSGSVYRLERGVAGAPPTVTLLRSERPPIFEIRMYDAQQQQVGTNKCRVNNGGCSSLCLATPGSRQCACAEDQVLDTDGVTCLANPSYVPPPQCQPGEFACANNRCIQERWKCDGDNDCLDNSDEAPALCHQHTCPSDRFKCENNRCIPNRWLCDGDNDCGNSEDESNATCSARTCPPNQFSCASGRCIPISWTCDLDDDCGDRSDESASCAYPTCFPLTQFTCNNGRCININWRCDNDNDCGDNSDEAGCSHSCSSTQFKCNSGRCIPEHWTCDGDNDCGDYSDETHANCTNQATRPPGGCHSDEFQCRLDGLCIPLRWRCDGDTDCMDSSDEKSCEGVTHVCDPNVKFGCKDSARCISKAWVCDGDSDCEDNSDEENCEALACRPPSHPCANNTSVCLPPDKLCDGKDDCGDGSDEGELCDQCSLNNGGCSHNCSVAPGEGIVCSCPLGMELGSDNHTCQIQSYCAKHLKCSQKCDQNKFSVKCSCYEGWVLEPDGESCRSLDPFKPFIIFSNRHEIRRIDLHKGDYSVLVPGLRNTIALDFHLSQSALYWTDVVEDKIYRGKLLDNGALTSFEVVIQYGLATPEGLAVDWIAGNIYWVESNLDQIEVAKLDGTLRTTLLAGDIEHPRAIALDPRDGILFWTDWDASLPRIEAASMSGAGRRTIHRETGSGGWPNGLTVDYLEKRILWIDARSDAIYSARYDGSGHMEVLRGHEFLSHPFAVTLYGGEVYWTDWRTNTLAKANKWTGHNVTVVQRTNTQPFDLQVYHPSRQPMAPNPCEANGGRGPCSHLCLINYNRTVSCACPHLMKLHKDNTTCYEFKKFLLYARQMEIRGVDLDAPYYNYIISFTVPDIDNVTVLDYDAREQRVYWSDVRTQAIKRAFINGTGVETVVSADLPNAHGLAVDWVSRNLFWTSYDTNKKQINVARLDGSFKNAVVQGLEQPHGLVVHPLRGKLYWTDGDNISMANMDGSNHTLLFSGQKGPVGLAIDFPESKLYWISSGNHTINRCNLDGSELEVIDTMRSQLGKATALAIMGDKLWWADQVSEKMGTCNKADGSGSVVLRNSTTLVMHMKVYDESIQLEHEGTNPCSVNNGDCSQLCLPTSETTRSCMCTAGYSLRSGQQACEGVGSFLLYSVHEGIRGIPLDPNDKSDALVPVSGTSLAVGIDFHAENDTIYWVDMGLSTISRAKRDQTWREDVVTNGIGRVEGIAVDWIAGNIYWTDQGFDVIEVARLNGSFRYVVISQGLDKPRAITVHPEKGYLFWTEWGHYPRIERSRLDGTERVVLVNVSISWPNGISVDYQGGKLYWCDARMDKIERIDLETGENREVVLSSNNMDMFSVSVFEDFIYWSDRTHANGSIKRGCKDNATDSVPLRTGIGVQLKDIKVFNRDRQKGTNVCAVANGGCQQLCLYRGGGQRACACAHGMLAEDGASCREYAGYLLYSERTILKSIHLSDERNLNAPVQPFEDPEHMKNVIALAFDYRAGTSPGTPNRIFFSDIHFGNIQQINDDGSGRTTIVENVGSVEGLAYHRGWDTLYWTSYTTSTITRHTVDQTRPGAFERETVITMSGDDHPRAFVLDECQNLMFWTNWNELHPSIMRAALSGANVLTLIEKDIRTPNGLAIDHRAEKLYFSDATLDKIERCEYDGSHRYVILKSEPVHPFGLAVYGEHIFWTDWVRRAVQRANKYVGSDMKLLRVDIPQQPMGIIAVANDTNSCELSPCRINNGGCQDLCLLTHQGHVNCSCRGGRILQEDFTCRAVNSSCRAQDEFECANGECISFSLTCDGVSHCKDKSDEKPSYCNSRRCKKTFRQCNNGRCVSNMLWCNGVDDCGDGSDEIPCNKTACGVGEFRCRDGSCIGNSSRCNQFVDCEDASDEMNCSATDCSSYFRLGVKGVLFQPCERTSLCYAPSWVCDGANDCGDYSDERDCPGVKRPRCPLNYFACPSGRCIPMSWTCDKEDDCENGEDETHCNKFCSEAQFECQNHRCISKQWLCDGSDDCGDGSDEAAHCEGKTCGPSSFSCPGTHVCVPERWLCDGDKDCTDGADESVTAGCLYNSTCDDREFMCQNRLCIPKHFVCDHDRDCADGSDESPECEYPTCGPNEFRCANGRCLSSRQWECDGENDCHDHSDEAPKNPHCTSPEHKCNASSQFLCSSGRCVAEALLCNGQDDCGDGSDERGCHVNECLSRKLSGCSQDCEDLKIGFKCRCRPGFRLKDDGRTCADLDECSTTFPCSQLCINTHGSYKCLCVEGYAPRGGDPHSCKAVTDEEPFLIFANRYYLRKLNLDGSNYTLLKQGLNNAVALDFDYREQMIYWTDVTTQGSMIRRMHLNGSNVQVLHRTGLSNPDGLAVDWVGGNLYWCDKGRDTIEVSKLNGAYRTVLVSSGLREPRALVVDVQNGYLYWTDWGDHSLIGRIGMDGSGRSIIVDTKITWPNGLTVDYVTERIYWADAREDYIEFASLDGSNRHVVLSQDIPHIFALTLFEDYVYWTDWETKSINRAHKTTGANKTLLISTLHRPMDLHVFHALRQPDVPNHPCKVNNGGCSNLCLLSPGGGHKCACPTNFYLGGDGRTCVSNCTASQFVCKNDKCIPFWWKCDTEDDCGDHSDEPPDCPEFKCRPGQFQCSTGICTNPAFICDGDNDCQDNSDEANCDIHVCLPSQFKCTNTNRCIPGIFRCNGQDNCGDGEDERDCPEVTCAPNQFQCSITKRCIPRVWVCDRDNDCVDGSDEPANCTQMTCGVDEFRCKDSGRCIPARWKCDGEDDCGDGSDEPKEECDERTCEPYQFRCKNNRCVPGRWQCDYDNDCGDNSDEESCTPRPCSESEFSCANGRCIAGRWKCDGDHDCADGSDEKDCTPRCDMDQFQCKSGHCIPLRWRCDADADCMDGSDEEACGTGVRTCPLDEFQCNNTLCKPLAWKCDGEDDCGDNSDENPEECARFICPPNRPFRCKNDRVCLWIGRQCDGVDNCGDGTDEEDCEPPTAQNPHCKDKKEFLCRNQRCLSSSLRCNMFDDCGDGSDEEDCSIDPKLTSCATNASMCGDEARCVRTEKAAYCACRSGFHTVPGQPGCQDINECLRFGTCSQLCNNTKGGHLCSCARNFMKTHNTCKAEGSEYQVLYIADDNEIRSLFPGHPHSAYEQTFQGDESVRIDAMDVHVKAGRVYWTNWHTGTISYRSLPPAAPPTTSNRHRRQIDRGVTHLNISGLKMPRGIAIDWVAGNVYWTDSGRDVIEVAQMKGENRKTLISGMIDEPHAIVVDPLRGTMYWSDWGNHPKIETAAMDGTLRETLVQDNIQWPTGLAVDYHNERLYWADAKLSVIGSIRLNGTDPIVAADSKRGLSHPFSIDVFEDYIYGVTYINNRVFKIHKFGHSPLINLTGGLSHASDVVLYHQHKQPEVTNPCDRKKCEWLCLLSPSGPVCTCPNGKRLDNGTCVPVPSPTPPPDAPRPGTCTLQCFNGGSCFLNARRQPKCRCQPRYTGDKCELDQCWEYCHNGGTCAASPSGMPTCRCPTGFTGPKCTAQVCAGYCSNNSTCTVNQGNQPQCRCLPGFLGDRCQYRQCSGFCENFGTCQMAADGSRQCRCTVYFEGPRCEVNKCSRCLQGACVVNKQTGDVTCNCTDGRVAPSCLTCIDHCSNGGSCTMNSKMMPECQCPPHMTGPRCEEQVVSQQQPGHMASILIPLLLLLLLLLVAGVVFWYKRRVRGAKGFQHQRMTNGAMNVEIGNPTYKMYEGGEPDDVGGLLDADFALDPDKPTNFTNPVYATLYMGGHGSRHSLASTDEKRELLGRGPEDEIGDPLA
# Sequence of syndapin-2 (Q9WVE8 whole entry): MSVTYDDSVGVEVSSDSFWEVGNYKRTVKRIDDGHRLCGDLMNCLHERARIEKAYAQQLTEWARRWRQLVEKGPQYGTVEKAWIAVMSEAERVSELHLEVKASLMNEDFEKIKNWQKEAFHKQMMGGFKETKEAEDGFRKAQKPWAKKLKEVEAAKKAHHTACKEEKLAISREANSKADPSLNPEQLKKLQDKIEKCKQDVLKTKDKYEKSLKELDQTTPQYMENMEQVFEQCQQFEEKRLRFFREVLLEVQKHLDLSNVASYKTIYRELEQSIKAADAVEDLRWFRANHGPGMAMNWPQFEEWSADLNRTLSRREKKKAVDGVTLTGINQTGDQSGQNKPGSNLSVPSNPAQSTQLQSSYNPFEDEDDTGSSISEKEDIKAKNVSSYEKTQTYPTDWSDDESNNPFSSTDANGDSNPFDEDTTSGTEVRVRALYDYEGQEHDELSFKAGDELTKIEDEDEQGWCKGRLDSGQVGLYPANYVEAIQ
row,PLA dots per cell (dots per cell),Molecule
1,250,syndapin-2 (from UniProt Q9WVE8 1-486) (natural protein)
2,80,apolipoprotein E (ligand) EGEPEVTDQLEWQSNQPWEQALNRFWDYLRWVQTLSDQVQEELQSSQVTQELTALMEDTMTEVKAYKKELEEQLGPVAEETRARLGKEVQAAQARLGADMEDLRNRLGQYRNEVHTMLGQSTEEIRARLSTHLRKMRKRLMRDAEDLQKRLAVYKAGAREGAERGVSAIRERLGPLVEQGRQRTANLGAGAAQPLRDRAQAFGDRIRGRLEEVGNQARDRLEEVREHMEEVRSKMEEQTQQIRLQAEIFQARLKGWFEPIVEDMHRQWANLMEKIQASVATNPIITPVAQENQ
